A word on the Kd: it is a measure of binding affinity in units of concentration.

Assay [1] addresses T1, TNFR1.
T1 chain: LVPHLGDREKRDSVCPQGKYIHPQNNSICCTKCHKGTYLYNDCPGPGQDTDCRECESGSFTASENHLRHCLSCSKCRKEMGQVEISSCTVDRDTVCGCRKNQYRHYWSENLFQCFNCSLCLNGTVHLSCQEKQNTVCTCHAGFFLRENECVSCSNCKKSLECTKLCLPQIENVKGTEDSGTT
Nature of the assay: SPR (BIAcore), TNFR1 on CM-5 chip, peptide injected. On the technique in general: SPR reads the build-up and loss of mass on a sensor chip optically.

Assay [2] deals with T1, TNFR1.
Assay [3] concerns the target T1, TNFR1.
Assay [4] concerns the target T1, TNFR1.

Where two headings read alike, the source gives them in different places.

B1: selective TNFR1 antagonist peptide Hydrostatin-SN10 (peptide)
peptide: DEQHLETELH
modifications: not checked
On to B1, for which the Kd with TNFR1 [1] amounted to 2.8 µM; with TNFR1 [2], 2.8 µM; in the assay with TNFR1 [3] it was 2.77 µM; with TNFR1 [4], 2.83 µM.
